# Measured values taken from patent US12037382.
# Assays:
# [1] = biological target: US28 wild type, G protein-coupled receptor of human cytomegalovirus strain VHL/E (human cytomegalovirus strain VHL/E); assay: cell-based or functional assay
# [2] = biological target: US28 wild type, G protein-coupled receptor of human cytomegalovirus strain VHL/E (human cytomegalovirus strain VHL/E); assay: competition of unlabeled CCL5 against 125I-CCL5 on US28
# [3] = biological target: US28 wild type, G protein-coupled receptor of human cytomegalovirus strain VHL/E (human cytomegalovirus strain VHL/E); assay: displacement of 125I-CCL5 from US28-expressing HEK293T membranes by unlabeled CCL5
# human chemokine CCL5, sequence (P13501 24-91 limits assumed): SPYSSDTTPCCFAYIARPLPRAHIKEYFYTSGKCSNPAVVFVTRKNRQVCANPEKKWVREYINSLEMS
substance,measurement,setting,value
human chemokine CCL5 (from UniProt P13501 24-91) (ligand),CCL5-induced accumulation of inositol phosphates (EC80),[1],31.6 nM
same,IC50 (read off the curve),[2],1 nM
same,IC50 (read off the curve),[3],3 nM
